Data published in patent US20240132563A1.

Experiments:
Assay in all cases: cell-based or functional assay
[1] = molecular target: IL-18 polypeptide of SEQ ID NO: 5 (E6K, V11I, C38A, K53A, T63A, C68A, C76A, M86C, C127A) (human) (UniProt Q14116)
[2] = molecular target: IL-18 polypeptide of SEQ ID NO: 55 (K53A, T63A, C38S, C68S, C76S, C127S, K70C) (human) (UniProt Q14116)
[3] = molecular target: IL-18 polypeptide C147 (V11I, C38A, K53A, D54A, C76A, C127A) (human) (UniProt Q14116)
[4] = molecular target: IL-18 polypeptide C164 (V11I, C38A, S55H, C76A, C127A) (human) (UniProt Q14116)
Sequence of IL-18 polypeptide C164 (V11I, C38A, S55H, C76A, C127A) (human) (Q14116 37-193 V47I/C74A/S91H/C112A/C163A): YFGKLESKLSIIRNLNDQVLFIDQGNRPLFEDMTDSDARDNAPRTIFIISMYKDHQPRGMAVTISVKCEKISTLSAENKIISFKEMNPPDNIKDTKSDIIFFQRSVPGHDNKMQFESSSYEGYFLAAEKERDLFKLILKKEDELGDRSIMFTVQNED

[5] = molecular target: IL-18 polypeptide C149 (V11I, E31A, C38A, K53A, C76A, C127A) (human) (UniProt Q14116)
Sequence of IL-18 polypeptide C149 (V11I, E31A, C38A, K53A, C76A, C127A) (human) (Q14116 37-193 V47I/E67A/C74A/K89A/C112A/C163A): as the sequence (Q14116 37-193 V47I/C74A/S91H/C112A/C163A) above, with E31A, K53A, H55S counted along it

[6] = molecular target: IL-18 polypeptide C155 (V11I, C38A, D40A, K53A, C76A, C127A) (human) (UniProt Q14116)
Sequence of IL-18 polypeptide C155 (V11I, C38A, D40A, K53A, C76A, C127A) (human) (Q14116 37-193 V47I/C74A/D76A/K89A/C112A/C163A): as the sequence (Q14116 37-193 V47I/C74A/S91H/C112A/C163A) above, with D40A, K53A, H55S counted along it

[7] = molecular target: IL-18 polypeptide C148 (F2A, V11I, C38A, K53A, C76A, C127A) (human) (UniProt Q14116)
Sequence of IL-18 polypeptide C148 (F2A, V11I, C38A, K53A, C76A, C127A) (human) (Q14116 other isoform, or with tags, fused parts or gaps V11I C38A K53A C76A C127A V11I C38A K53A C76A C127A): as the sequence (Q14116 37-193 V47I/C74A/S91H/C112A/C163A) above, with F2A, K53A, H55S counted along it

[8] = molecular target: IL-18 polypeptide of SEQ ID NO: 53 (K53A, T63A) (human) (UniProt Q14116)
Sequence of IL-18 polypeptide of SEQ ID NO: 53 (K53A, T63A) (human) (Q14116 37-193 K89A/T99A): as the sequence (Q14116 37-193 V47I/C74A/S91H/C112A/C163A) above, with I11V, A38C, K53A, H55S, T63A, A76C, A127C counted along it

[9] = molecular target: IL-18 polypeptide of SEQ ID NO: 59 (E6K, C38A, K53A) (human) (UniProt Q14116)
Sequence of IL-18 polypeptide of SEQ ID NO: 59 (E6K, C38A, K53A) (human) (Q14116 other isoform, or with tags, fused parts or gaps C38A K53A C38A K53A): as the sequence (Q14116 37-193 V47I/C74A/S91H/C112A/C163A) above, with E6K, I11V, K53A, H55S, A76C, A127C counted along it

[10] = molecular target: IL-18 polypeptide of SEQ ID NO: 48 (C38S, C68S, C76S, C127S, K70C) (human) (UniProt Q14116)
Sequence of IL-18 polypeptide of SEQ ID NO: 48 (C38S, C68S, C76S, C127S, K70C) (human) (Q14116 37-193 C74S/C104S/K106C/C112S/C163S): as the sequence (Q14116 37-193 V47I/C74A/S91H/C112A/C163A) above, with I11V, A38S, H55S, C68S, K70C, A76S, A127S counted along it

[11] = molecular target: IL-18 polypeptide of SEQ ID NO: 35 (Y01G, F02A, E06K, M51G, K53A, D54A, S55A, T63A) (human) (UniProt Q14116)
Sequence of IL-18 polypeptide of SEQ ID NO: 35 (Y01G, F02A, E06K, M51G, K53A, D54A, S55A, T63A) (human) (Q14116 37-193 Y37G/F38A/E42K/M87G/K89A/D90A/S91A/T99A): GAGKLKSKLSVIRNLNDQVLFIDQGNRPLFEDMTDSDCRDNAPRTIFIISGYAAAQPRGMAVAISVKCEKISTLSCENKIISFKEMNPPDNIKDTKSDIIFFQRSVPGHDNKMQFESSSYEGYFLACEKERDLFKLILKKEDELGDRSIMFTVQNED

[12] = molecular target: IL-18 polypeptide of SEQ ID NO: 43 (E06K, K53A, S55A, Y01G) (human) (UniProt Q14116)
Sequence of IL-18 polypeptide of SEQ ID NO: 43 (E06K, K53A, S55A, Y01G) (human) (Q14116 37-193 Y37G/E42K/K89A/S91A): as the sequence (Q14116 37-193 Y37G/F38A/E42K/M87G/K89A/D90A/S91A/T99A) above, with A2F, G51M, A54D, A63T counted along it

[13] = molecular target: IL-18 polypeptide C161 (K8R, V11I, C38A, C76A, Q103E, C127A) (human) (UniProt Q14116)
Sequence of IL-18 polypeptide C161 (K8R, V11I, C38A, C76A, Q103E, C127A) (human) (Q14116 other isoform, or with tags, fused parts or gaps V11I C38A C76A Q103E C127A V11I C38A C76A Q103E C127A): as the sequence (Q14116 37-193 V47I/C74A/S91H/C112A/C163A) above, with K8R, H55S, Q103E counted along it

[14] = molecular target: IL-18 polypeptide of SEQ ID NO: 60 (E6K, C38Q, K53A) (human) (UniProt Q14116)
Sequence of IL-18 polypeptide of SEQ ID NO: 60 (E6K, C38Q, K53A) (human) (Q14116 other isoform, or with tags, fused parts or gaps C38Q K53A C38Q K53A): as the sequence (Q14116 37-193 Y37G/F38A/E42K/M87G/K89A/D90A/S91A/T99A) above, with G1Y, A2F, C38Q, G51M, A54D, A55S, A63T counted along it

[15] = molecular target: IL-18 polypeptide of SEQ ID NO: 42 (E06K, K53A, S55A, T63A) (human) (UniProt Q14116)
Sequence of IL-18 polypeptide of SEQ ID NO: 42 (E06K, K53A, S55A, T63A) (human) (Q14116 37-193 E42K/K89A/S91A/T99A): as the sequence (Q14116 37-193 Y37G/F38A/E42K/M87G/K89A/D90A/S91A/T99A) above, with G1Y, A2F, G51M, A54D counted along it

[16] = molecular target: IL-18 polypeptide C162 (K8E, V11I, C38A, C76A, Q103R, C127A) (human) (UniProt Q14116)
Sequence of IL-18 polypeptide C162 (K8E, V11I, C38A, C76A, Q103R, C127A) (human) (Q14116 other isoform, or with tags, fused parts or gaps V11I C38A C76A Q103R C127A V11I C38A C76A Q103R C127A): as the sequence (Q14116 37-193 V47I/C74A/S91H/C112A/C163A) above, with K8E, H55S, Q103R counted along it

[17] = molecular target: IL-18 polypeptide of SEQ ID NO: 1 (native sequence) (human) (UniProt Q14116)
Sequence of IL-18 polypeptide of SEQ ID NO: 1 (native sequence) (human) (Q14116 37-193): as the sequence (Q14116 37-193 V47I/C74A/S91H/C112A/C163A) above, with I11V, A38C, H55S, A76C, A127C counted along it

[18] = molecular target: IL-18 polypeptide C160 (V11I, C38A, K53A, C76A, D110A, C127A) (human) (UniProt Q14116)
Sequence of IL-18 polypeptide C160 (V11I, C38A, K53A, C76A, D110A, C127A) (human) (Q14116 37-193 V47I/C74A/K89A/C112A/D146A/C163A): as the sequence (Q14116 37-193 V47I/C74A/S91H/C112A/C163A) above, with K53A, H55S, D110A counted along it

[19] = molecular target: IL-18 polypeptide C146, SEQ ID NO: 68 (V11I, C38A, M51G, K53A, C76A, C127A) (human) (UniProt Q14116)
Sequence of IL-18 polypeptide C146, SEQ ID NO: 68 (V11I, C38A, M51G, K53A, C76A, C127A) (human) (Q14116 37-193 V47I/C74A/M87G/K89A/C112A/C163A): as the sequence (Q14116 37-193 V47I/C74A/S91H/C112A/C163A) above, with M51G, K53A, H55S counted along it

[20] = molecular target: IL-18 polypeptide of SEQ ID NO: 37 (S55A) (human) (UniProt Q14116)
Sequence of IL-18 polypeptide of SEQ ID NO: 37 (S55A) (human) (Q14116 37-193 S91A): as the sequence (Q14116 37-193 V47I/C74A/S91H/C112A/C163A) above, with I11V, A38C, H55A, A76C, A127C counted along it

[21] = molecular target: IL-18 polypeptide C145 (V11I, C38A, K53A, S55A, C76A, C127A) (human) (UniProt Q14116)
Sequence of IL-18 polypeptide C145 (V11I, C38A, K53A, S55A, C76A, C127A) (human) (Q14116 37-193 V47I/C74A/K89A/S91A/C112A/C163A): as the sequence (Q14116 37-193 V47I/C74A/S91H/C112A/C163A) above, with K53A, H55A counted along it

[22] = molecular target: IL-18 polypeptide C156 (V11I, C38A, N41A, K53A, C76A, C127A) (human) (UniProt Q14116)
Sequence of IL-18 polypeptide C156 (V11I, C38A, N41A, K53A, C76A, C127A) (human) (Q14116 37-193 V47I/C74A/N77A/K89A/C112A/C163A): as the sequence (Q14116 37-193 V47I/C74A/S91H/C112A/C163A) above, with N41A, K53A, H55S counted along it

[23] = molecular target: IL-18 polypeptide C163 (V11I, C38A, C76A, Q103K, C127A) (human) (UniProt Q14116)
Sequence of IL-18 polypeptide C163 (V11I, C38A, C76A, Q103K, C127A) (human) (Q14116 37-193 V47I/C74A/C112A/Q139K/C163A): as the sequence (Q14116 37-193 V47I/C74A/S91H/C112A/C163A) above, with H55S, Q103K counted along it

[24] = molecular target: IL-18 polypeptide of SEQ ID NO: 57 (E6K, C38S, K53A) (human) (UniProt Q14116)
Sequence of IL-18 polypeptide of SEQ ID NO: 57 (E6K, C38S, K53A) (human) (Q14116 other isoform, or with tags, fused parts or gaps C38S K53A C38S K53A): as the sequence (Q14116 37-193 Y37G/F38A/E42K/M87G/K89A/D90A/S91A/T99A) above, with G1Y, A2F, C38S, G51M, A54D, A55S, A63T counted along it

[25] = molecular target: IL-18 polypeptide of SEQ ID NO: 41 (K53A, S55A) (human) (UniProt Q14116)
Sequence of IL-18 polypeptide of SEQ ID NO: 41 (K53A, S55A) (human) (Q14116 37-193 K89A/S91A): as the sequence (Q14116 37-193 Y37G/F38A/E42K/M87G/K89A/D90A/S91A/T99A) above, with G1Y, A2F, K6E, G51M, A54D, A63T counted along it

[26] = molecular target: IL-18 polypeptide of SEQ ID NO: 47 (C38S, C68S, C76S, C127S) (human) (UniProt Q14116)
Sequence of IL-18 polypeptide of SEQ ID NO: 47 (C38S, C68S, C76S, C127S) (human) (Q14116 37-193 C74S/C104S/C112S/C163S): as the sequence (Q14116 37-193 V47I/C74A/S91H/C112A/C163A) above, with I11V, A38S, H55S, C68S, A76S, A127S counted along it

[27] = molecular target: IL-18 polypeptide of SEQ ID NO: 50 (E06K, K53A, T63A) (human) (UniProt Q14116)
Sequence of IL-18 polypeptide of SEQ ID NO: 50 (E06K, K53A, T63A) (human) (Q14116 37-193 E42K/K89A/T99A): as the sequence (Q14116 37-193 Y37G/F38A/E42K/M87G/K89A/D90A/S91A/T99A) above, with G1Y, A2F, G51M, A54D, A55S counted along it

Sequence of IL-18 polypeptide of SEQ ID NO: 55 (K53A, T63A, C38S, C68S, C76S, C127S, K70C) (human) (Q14116 37-193 C74S/K89A/T99A/C104S/K106C/C112S/C163S): as the sequence (Q14116 37-193 V47I/C74A/S91H/C112A/C163A) above, with I11V, A38S, K53A, H55S, T63A, C68S, K70C, A76S, A127S counted along it
Sequence of IL-18 polypeptide C147 (V11I, C38A, K53A, D54A, C76A, C127A) (human) (Q14116 37-193 V47I/C74A/K89A/D90A/C112A/C163A): as the sequence (Q14116 37-193 V47I/C74A/S91H/C112A/C163A) above, with K53A, D54A, H55S counted along it
Sequence of IL-18 polypeptide of SEQ ID NO: 5 (E6K, V11I, C38A, K53A, T63A, C68A, C76A, M86C, C127A) (human) (Q14116 other isoform, or with tags, fused parts or gaps with the stated changes): as the sequence (Q14116 37-193 V47I/C74A/S91H/C112A/C163A) above, with E6K, K53A, H55S, T63A, C68A, M86C counted along it

With “Fc-fused human IL-18 binding protein isoform a (IL-18BPa) (from UniProt O95998 31-194) (Fc fusion)” the IC50 of IL-18BPa inhibition of IFNγ induction in NK-92 cells [1] was 62.4 nM, the IC50 of IL-18BPa inhibition of IFNγ induction in NK-92 cells [2] was greater than 1000 nM and the IC50 of IL-18BPa inhibition of IFNγ induction in NK-92 cells [3] was 5.05 nM. For the same substance, the IC50 of IL-18BPa inhibition of IFNγ induction in NK-92 cells [4] was 0.885 nM, the IC50 of IL-18BPa inhibition of IFNγ induction in NK-92 cells [5] was 21.3 nM and the IC50 of IL-18BPa inhibition of IFNγ induction in NK-92 cells [6] was 0.681 nM. The IC50 of IL-18BPa inhibition of IFNγ induction in NK-92 cells [7] was 1.17 nM, the IC50 of IL-18BPa inhibition of IFNγ induction in NK-92 cells [8] was 18.2 nM and the IC50 of IL-18BPa inhibition of IFNγ induction in NK-92 cells [9] was 146 nM. For the same substance, the IC50 of IL-18BPa inhibition of IFNγ induction in NK-92 cells [10] was 0.114 nM, the IC50 of IL-18BPa inhibition of IFNγ induction in NK-92 cells [11] was greater than 55 nM and the IC50 of IL-18BPa inhibition of IFNγ induction in NK-92 cells [12] was 27.8 nM. For the same substance, the IC50 of IL-18BPa inhibition of IFNγ induction in NK-92 cells [13] was 7.29 nM, the IC50 of IL-18BPa inhibition of IFNγ induction in NK-92 cells [14] was 654 nM and the IC50 of IL-18BPa inhibition of IFNγ induction in NK-92 cells [15] was 1060 nM. The IC50 of IL-18BPa inhibition of IFNγ induction in NK-92 cells [16] was 0.823 nM, the IC50 of IL-18BPa inhibition of IFNγ induction in NK-92 cells [17] was 1.47 nM and the IC50 of IL-18BPa inhibition of IFNγ induction in NK-92 cells [18] was 1.07 nM. The IC50 of IL-18BPa inhibition of IFNγ induction in NK-92 cells [19] was 47.6 nM, the IC50 of IL-18BPa inhibition of IFNγ induction in NK-92 cells [20] was 4.46 nM and the IC50 of IL-18BPa inhibition of IFNγ induction in NK-92 cells [21] was 733 nM. For the same substance, the IC50 of IL-18BPa inhibition of IFNγ induction in NK-92 cells [22] was 6.08 nM, the IC50 of IL-18BPa inhibition of IFNγ induction in NK-92 cells [23] was 0.456 nM and the IC50 of IL-18BPa inhibition of IFNγ induction in NK-92 cells [24] was 1.62 nM. The IC50 of IL-18BPa inhibition of IFNγ induction in NK-92 cells [25] was 37.3 nM, the IC50 of IL-18BPa inhibition of IFNγ induction in NK-92 cells [26] was 0.444 nM and the IC50 of IL-18BPa inhibition of IFNγ induction in NK-92 cells [27] was greater than 1000 nM.
